Values quoted from earlier work, collected in PMC4028615.

Molecular target: integrin (LFA-1) (Homo sapiens) (UniProt P20701)
Sequence (P20701 26-1090, chain 1 of 2): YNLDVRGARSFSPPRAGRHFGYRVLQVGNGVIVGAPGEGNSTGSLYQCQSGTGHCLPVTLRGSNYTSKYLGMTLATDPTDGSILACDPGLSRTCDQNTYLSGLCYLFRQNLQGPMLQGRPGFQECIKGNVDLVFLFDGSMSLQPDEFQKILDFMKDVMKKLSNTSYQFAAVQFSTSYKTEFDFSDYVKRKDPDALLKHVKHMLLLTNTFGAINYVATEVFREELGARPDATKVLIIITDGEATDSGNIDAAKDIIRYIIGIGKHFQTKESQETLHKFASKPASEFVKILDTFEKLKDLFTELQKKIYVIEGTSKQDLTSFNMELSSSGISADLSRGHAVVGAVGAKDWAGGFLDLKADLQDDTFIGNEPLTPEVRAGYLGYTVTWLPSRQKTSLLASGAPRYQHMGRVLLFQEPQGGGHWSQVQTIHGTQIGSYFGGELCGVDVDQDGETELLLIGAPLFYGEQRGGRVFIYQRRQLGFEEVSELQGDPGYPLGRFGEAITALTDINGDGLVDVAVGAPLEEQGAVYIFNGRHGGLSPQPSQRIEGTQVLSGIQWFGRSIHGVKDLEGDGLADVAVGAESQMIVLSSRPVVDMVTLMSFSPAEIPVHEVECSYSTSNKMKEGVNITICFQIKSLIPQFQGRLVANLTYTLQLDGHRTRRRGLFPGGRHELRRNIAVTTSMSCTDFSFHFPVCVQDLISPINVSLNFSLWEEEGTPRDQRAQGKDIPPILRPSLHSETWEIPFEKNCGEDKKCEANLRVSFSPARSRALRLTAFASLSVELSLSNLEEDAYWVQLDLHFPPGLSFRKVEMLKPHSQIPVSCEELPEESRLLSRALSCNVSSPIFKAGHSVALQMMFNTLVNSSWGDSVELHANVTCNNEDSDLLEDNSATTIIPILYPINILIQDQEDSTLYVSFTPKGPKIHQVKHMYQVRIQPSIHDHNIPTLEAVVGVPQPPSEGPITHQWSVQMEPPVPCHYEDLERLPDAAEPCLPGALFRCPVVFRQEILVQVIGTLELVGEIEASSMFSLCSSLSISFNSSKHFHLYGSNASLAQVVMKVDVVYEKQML
Sequence (P05107 23-700, chain 2 of 2, further chain): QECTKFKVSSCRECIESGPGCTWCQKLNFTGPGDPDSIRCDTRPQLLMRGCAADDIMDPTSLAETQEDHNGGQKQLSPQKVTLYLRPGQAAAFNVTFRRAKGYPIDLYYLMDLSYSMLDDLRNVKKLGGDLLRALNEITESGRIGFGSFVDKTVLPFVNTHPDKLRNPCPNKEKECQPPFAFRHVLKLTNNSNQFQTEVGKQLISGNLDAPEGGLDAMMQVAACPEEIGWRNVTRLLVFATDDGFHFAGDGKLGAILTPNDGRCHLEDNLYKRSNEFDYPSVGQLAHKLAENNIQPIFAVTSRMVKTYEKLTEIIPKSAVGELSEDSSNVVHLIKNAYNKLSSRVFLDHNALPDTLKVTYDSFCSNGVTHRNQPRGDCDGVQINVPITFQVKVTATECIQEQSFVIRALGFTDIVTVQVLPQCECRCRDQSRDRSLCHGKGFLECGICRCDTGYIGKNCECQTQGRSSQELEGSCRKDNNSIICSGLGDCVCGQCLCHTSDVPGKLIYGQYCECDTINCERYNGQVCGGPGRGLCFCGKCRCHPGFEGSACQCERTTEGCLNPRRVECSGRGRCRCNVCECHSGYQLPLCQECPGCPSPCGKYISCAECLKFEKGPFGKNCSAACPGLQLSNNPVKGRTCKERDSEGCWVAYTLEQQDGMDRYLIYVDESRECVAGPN

Sequence of ICAM-1 (P05362 28-480): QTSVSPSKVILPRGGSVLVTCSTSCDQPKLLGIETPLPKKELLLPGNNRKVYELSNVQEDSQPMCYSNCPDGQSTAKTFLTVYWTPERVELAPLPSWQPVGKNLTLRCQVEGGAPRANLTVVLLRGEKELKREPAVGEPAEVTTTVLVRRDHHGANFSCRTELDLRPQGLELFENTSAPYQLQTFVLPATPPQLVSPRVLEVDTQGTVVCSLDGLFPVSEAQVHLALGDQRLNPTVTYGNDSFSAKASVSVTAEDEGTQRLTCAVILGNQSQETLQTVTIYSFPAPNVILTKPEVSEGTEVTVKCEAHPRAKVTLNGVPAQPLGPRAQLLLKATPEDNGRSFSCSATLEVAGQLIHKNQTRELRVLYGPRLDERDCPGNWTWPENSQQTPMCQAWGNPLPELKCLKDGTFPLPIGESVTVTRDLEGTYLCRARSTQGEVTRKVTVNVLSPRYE

## ICAM-1 (from UniProt P05362)
  Kd: 100 nM
